# Test results: patent publication US20020055173, “Method for preparing adenovirus vectors, vectors so prepared, and uses thereof” (published 2002)
# Residue numbers refer to the chain shown, from its start.
# T1: MAZ (UniProt P56270 P56270:1-477)
# T1 sequence: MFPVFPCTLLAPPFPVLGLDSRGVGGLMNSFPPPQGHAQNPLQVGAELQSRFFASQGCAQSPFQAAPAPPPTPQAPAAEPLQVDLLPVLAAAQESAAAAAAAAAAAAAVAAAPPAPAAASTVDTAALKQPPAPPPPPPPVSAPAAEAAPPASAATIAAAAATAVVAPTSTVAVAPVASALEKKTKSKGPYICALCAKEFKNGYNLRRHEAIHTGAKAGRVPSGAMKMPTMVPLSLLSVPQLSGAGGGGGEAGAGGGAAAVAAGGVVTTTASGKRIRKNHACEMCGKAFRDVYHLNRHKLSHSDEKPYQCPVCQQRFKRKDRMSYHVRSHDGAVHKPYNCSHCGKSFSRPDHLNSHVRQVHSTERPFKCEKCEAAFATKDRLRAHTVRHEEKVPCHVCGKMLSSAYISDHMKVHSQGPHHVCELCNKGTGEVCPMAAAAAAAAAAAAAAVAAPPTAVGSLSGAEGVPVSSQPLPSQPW
# B1: minimal MLP wild type (dsDNA)
# DNA 1: TGAAGGGGGGCTATAAAAGGGGGTGGGGGCGCGTTCGTCCTCACTCTCTTCC
# DNA 2: GGAAGAGAGTGAGGACGAACGCGCCCCCACCCCCTTTTATAGCCCCCCTTCA
# B2: minimal MLP M1 (-18GC mutant) (dsDNA)
# DNA 1: B1 DNA 1 with G20T, G22T, G26T, G28T, C30T, C32T
# DNA 2: B1 DNA 2 with G21A, G23A, C25A, C27A, C31A, C33A
# B3: minimal MLP M2 (-36GC mutant) (dsDNA)
# DNA 1: B1 DNA 1 with A3T, A4T, G6T, G7T, G9T, G10T
# DNA 2: B1 DNA 2 with C43A, C44A, C46A, C47A, T49A, T50A
# B4: minimal MLP M3 (-18GC and -36GC mutant) (dsDNA)
# DNA 1: TGTTGTTGTTCTATAAAAGTGTGTGTGTGTGCGTTCGTCCTCACTCTCTTCC
# DNA 2: GGAAGAGAGTGAGGACGAACGCACACACACACACTTTTATAGAACAACAACA
# How the values were obtained:
# Sp1 [1] = target: T2, Sp1 (UniProt P08047 P08047:2-785); assay: footprint; one Sp1 site (-18GC); details: tags: Promega; label: 5' end label in luciferase coding region
# MAZ [2] = target: T1, MAZ; assay: footprint; two MAZ sites; details: tags: prepared as in Parks and Shenk 1996; label: 5' end label in luciferase coding region
# Sp1 [3] = target: T2, Sp1; assay: footprint; interaction completely blocked; details: tags: Promega; label: 5' end label in luciferase coding region
# Sp1 [4] = target: T2, Sp1; assay: footprint; Sp1 footprint not altered; details: tags: Promega; label: 5' end label in luciferase coding region
# Sp1 [5] = target: T2, Sp1; assay: footprint; interaction substantially blocked; details: tags: Promega; label: 5' end label in luciferase coding region
# MAZ [6] = target: T1, MAZ; assay: footprint; interaction substantially blocked; details: tags: prepared as in Parks and Shenk 1996; label: 5' end label in luciferase coding region
# T2 sequence (P08047 2-785, one chain of several): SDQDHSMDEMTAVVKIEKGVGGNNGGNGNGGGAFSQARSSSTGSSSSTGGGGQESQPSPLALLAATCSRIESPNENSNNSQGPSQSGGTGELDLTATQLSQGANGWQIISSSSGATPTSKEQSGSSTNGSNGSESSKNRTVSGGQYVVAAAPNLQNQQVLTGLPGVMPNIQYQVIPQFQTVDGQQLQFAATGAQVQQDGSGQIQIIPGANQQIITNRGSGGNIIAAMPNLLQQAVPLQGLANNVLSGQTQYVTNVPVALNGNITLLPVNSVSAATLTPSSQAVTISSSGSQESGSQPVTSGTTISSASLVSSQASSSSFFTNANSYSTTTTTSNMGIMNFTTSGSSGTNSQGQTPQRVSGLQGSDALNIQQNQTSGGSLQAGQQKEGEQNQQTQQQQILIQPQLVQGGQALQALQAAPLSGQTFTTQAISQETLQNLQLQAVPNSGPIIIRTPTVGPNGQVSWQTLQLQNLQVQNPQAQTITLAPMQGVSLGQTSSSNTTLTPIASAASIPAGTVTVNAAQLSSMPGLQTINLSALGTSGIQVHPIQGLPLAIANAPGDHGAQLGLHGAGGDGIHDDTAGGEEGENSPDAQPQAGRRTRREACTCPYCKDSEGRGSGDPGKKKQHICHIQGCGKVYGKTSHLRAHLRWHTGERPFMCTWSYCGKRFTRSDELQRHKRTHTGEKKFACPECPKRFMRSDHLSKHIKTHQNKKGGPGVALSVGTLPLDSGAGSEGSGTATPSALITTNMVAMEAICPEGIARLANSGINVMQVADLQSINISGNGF
binder,measurement,setting,value
B1,binding result,Sp1 [1],binds
same,binding result,MAZ [2],binds
B2,binding result,Sp1 [3],no binding
B3,binding result,Sp1 [4],binds
B4,binding result,Sp1 [5],no binding
same,binding result,MAZ [6],no binding
